Target: the molecule itself
Assay: crystal structure; CR-VI+ crystals, space group P2_(1)2_(1)2_(1), two molecules in the asymmetric unit; vapour diffusion at 20.5 °C, PGA-HT screen C11 (pH 6.5) with 0.1 M guanidine hydrochloride

B1: CR-VI+ domain of human metapneumovirus (hMPV) L protein (domain or fragment)
chain: NALLTPIPSPMVNLTQVIDPTEQLAYFPKITFERLKNYDTSSNYAKGKLTRNYMILLPWQHVNRYNFVFSSTGCKVSLKTCIGKLMKDLNPKVLYFIGEGAGNWMARTACEYPDIKFVYRSLKDDLDHHYPLEYQRVIGELSRIIDSGEGLSMETTDATQKTHWDLIHRVSKDALLITLCDAEFKDRDDFFKMVILWRKHVLSCRICTTYGTDLYLFAKYHAKDCNVKLPFFVRSVATFIMQGSKLSGSECYILLTLGHHNNLPCHGEIQNSKMKIAVCNDFYAAKKLDNKSIEANCKSLLSGLRIPINKKELNRQRRLLTLQSNHSSVATVGGSKVIESKWLTNKANTIIDWLEHILNSPKGELNYDFFEALENTYPNMIKLIDNLGNAEIKKLIKVTGYMLVSKK
modifications: disulphide between C1877 of the two copies
notes: L protein (large RNA polymerase) of human metapneumovirus isolate 00-1, GenBank AF371337.2, residues 1599-2005 (CR-VI ~1616-1883 and +domain 1884-2005); synthetic gene, codon optimised for Sf cells; The text calls it a 406-residue fragment, but 1599-2005 counts 407 residues; A selenomethionine form was used for phasing; The construct was also expressed in HEK293T and BL21 Star; crystals came from …
Question: How did the “stoichiometry N” value turn out when B1 was run?
Answer: 2

From publication PMC4659945, “X-ray structure and activities of an essential Mononegavirales L-protein domain” (Nature Communications, 2015)
